Measurements reported in publication PMC4191155, “FaPOD27 functions in the metabolism of polyphenols in strawberry fruit (Fragaria sp.)” (Frontiers in Plant Science, 2014).

Assays:
FaPOD27 = biological target: T1, FaPOD27 (Fragaria x ananassa, UniProt J7IER7); assay: LC-UV-ESI-MSn product identification; format: biochemical; conditions: H2O2, sodium tartrate pH 3.5, room temperature; crude E. coli protein
T1 construct: GST fusion, E. coli, crude protein
T1 sequence (J7IER7 1-329): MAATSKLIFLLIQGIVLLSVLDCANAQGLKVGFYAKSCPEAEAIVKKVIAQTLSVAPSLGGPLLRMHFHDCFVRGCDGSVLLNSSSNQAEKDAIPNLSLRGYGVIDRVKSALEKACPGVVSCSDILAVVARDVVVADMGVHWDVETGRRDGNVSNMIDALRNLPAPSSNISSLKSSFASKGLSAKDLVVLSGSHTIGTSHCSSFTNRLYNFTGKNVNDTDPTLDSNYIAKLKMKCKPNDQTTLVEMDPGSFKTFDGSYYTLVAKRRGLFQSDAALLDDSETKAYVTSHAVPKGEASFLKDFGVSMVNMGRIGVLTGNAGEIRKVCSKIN

FaCAD = biological target: T2, FaCAD (Fragaria x ananassa, UniProt J7IAL0); assay: LC-UV-ESI-MSn product identification; format: biochemical; conditions: NADPH 200 μM, coniferaldehyde 100 μM, sodium phosphate pH 6.5, 30 °C; crude yeast protein
T2 construct: full-length ORF 1077 bp, 359 aa, 39 kDa; pYES2 in S. cerevisiae INVSc1, crude protein
T2 sequence (J7IAL0 1-359): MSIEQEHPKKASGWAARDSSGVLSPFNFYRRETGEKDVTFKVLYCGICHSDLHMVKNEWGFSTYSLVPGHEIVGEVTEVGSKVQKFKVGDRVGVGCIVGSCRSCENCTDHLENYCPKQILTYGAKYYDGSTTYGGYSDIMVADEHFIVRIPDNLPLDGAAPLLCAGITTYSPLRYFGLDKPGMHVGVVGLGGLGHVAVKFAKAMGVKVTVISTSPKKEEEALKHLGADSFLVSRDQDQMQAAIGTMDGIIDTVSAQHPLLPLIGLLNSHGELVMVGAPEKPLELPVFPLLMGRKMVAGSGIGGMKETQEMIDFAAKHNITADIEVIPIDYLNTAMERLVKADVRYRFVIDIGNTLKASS

[1] = substrate: COc1cc(/C=C/C(=O)SCCNC(=O)CCNC(=O)[C@H](O)C(C)(C)COP(=O)(O)OP(=O)(O)OC[C@H]2O[C@@H](n3cnc4c(N)ncnc43)[C@H](O)[C@@H]2OP(=O)(O)O)ccc1O; assay: spectrophotometric CCR assay; format: biochemical, Fragaria x ananassa; conditions: NADPH, sodium phosphate, pH optimum 6, 25 °C, apparent Km
Text: (§1) spectrophotometric CCR assay on GST-FaCCR

[2] = substrate: CC(C)(COP(=O)(O)OP(=O)(O)OC[C@H]1O[C@@H](n2cnc3c(N)ncnc32)[C@H](O)[C@@H]1OP(=O)(O)O)[C@@H](O)C(=O)NCCC(=O)NCCSC(=O)/C=C/c1ccc(O)c(O)c1; assay: spectrophotometric CCR assay; format: biochemical, Fragaria x ananassa; conditions: NADPH, sodium phosphate, pH optimum 6, 25 °C, apparent Km
Text: as §1

[3] = substrate: CC(C)(COP(=O)(O)OP(=O)(O)OC[C@H]1O[C@@H](n2cnc3c(N)ncnc32)[C@H](O)[C@@H]1OP(=O)(O)O)[C@@H](O)C(=O)NCCC(=O)NCCSC(=O)/C=C/c1ccc(O)cc1; assay: spectrophotometric CCR assay; format: biochemical, Fragaria x ananassa; conditions: NADPH, sodium phosphate, pH optimum 6, 25 °C, apparent Km
Text: as §1

Molecule: COc1cc(/C=C/CO)ccc1O [coniferyl alcohol]
- LC-UV-ESI-MSn product identification (FaPOD27): ferulic acid and coniferyl alcohol were almost completely oxidized in the presence of H2O2

Molecule: COc1cc(/C=C/C=O)ccc1O [coniferaldehyde]
- LC-UV-ESI-MSn product identification (FaCAD): FaCAD was expressed in yeast cells and showed that coniferyl alcohol was generated

Molecule: COc1cc(/C=C/C(=O)O)ccc1O [ferulic acid]
- LC-UV-ESI-MSn product identification (FaPOD27): ferulic acid and coniferyl alcohol were almost completely oxidized in the presence of H2O2

B1: GST-FaCCR (Fragaria x ananassa) (protein)
chain: MPVDNCSSLSGHGQTVCVTGAGGFFASWLVKLLLERGYNVRGTVRNPEDPKNAHLRELEGAKERLSLRKADLLDFESLKEAINGCDGVFHTASPVTDDPEQMVEPAVNGTKNVIVAAAEAKVKRVVFTSSIGAVYMDPARGPDVVVDESCWSDLEFCKNTKNWYCYGKAVAEQAAWEEAKERGVDLVVVNPVLVLGPLLQPTINASIIHILKYLTGSAKTYANSVQAYVHVKDVALAHILVYETPSASGRYLCAESVLHRGDVVEILAKFFPEYPIPSKLKDDGKPRAIPYKFSNQKLQDLGLEFTSVKQSLYDTVKSLQEKGHLKVPTKQEEDSFKIQ
- Km [1]: 16.11 ± 1.39 µM
- kcat/Km [1]: 145 M⁻¹ s⁻¹
- Km [2]: 25.48 ± 0.82 µM
- kcat/Km [2]: 1.15 M⁻¹ s⁻¹
- Km [3]: 24.75 ± 1.23 µM
- kcat/Km [3]: 1.07 M⁻¹ s⁻¹
